Data reported in article PMC3852656.

Experiments:
[1] = molecular target: superfolder Cherry (sfCherry); experiment: native gel or EMSA; native polyacrylamide gel at ∼10 mg/ml protein concentration
[2] = molecular target: superfolder Cherry (sfCherry); experiment: crystal structure; sfCherry alone, 2.0 Å, space group P21, eight copies in the asymmetric unit; 0.1 M SPG buffer pH 5.0, 25% PEG 1500

In the case of superfolder Cherry (sfCherry), the percent dimer [1] is reported as 50%, the stoichiometry N [1] is reported as 2 and the stoichiometry N [2] is reported as 2.
